In paper PMC2844890:

Assay: infectious virion yield
Settings: glycan lost; control: WT tetherin

B1: tetherin (BST-2): N65,92A (protein)
parent chain: MASTSYDYCRVPMEDGDKRCKLLLGIGILVLLIIVILGVPLIIFTIKANSEACRDGLRAVMECRNVTHLLQQELTEAQKGFQDVEAQAATCNHTVMALMASLDAEKAQGQKKVEELEGEITTLNHKLQDASAEVERLRRENQVLSVRIADKKYYPSSQDSSSAAAPQLLIVLLGLSALLQ
other: inhibition of virion release: abolishes
